Data: the supplement of paper PMC9170038

system: MS2 coat protein; experiment: apparent KD of MS2 coat protein, switch ON state; designed switch direction (-1 OFF switch, 1 ON switch): -1; higher = weaker reporter binding; settings: FMN input: 0 or 200 uM; Eterna round: R93 (includes R88 designs)
Outline: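 Apparent KD is reported per design as the median of normalised binding-curve fits across its clusters. The RNA switches were made by on-chip transcription from Illumina sequencing clusters. SNAP-549-labelled MS2 coat protein was then added in twofold steps (0.7 or 1.5 nM to 3 µM; 0.8–1.5 h to 10–20 min per step) in 100 mM Tris-HCl pH 7.5, 80 mM KCl, 4 mM MgCl2, without or with constant ligand.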

**Q.** “AACAGUACAGGAUAUACAUGAGGAUCACCCAUGUGAAAUAAAAGUGGCGUACCACAAAGUAGAAGGGUACUGAA [Mat - Exclusion 3 - JL mod - D27]” was tested. Which “apparent KD of MS2 coat protein” value did it give?
**A.** The value was 27.1 nM.

**Q.** “AAGAACUGAGGAUAUACAAAAGAAAAGAAAAGAAAGAAAGAACAUGAGGAUCACCCAUGUAGAAGGCGGAAGAA [Khahotepre Sobekhotep VI]” was tested. Which “apparent KD of MS2 coat protein” value did it give?
**A.** The value was 31.5 nM.

**Q.** How did the “apparent KD of MS2 coat protein” value turn out when “AGCUAGUGAGGAUAUACGAACACGUAACAGGACUGUAAGGGACAUGAGGAUCACCCAUGUAGAAGGCACUAGCA [Diamond 61]” was run?
**A.** Its value is 33.9 nM.

**Q.** With “CUCUAGUUAGGAUAUGGAAGAAAAGAAAAGAAAGAAAAGAACCAGAAGGAACAUGAGGAUCACCCAUGUAAGAA [EteRNA is fun!]” as the sequence, how does the “apparent KD of MS2 coat protein” value read?
**A.** Its value is 45.5 nM.

**Q.** With “AAAAAGAAAGGAUAUACGAACAUGUCAAAAGACGUGAAGGGACAUGAGGAUCACCCAUGUAGAAGGUUCAAAAA [JL Half Open 22]” as the sequence, how does the “apparent KD of MS2 coat protein” value read?
**A.** The value was 35.8 nM.

**Q.** With “AAAGGAUCAGGAUAUGUGUGGAAAAAGUGUAUCCGAAAAAAACAUGAGGAUCACCCAUGUAGAAGGGAUCCAAA [Mod 3 of Normal (20/19) by Nando, Round 1]” as the sequence, how does the “apparent KD of MS2 coat protein” value read?
**A.** The value was 182 nM.

**Q.** Which “apparent KD of MS2 coat protein” value does the source give for “GAAUGCAGAGGAUAUACGGGAUAGCAUCGAAAGAUGCUAAAACAUGAGGAUCACCCAUGUAGAAGGCUGCAGAA [JL Mod 02]” here?
**A.** The value was 58 nM.

**Q.** How did the “apparent KD of MS2 coat protein” value turn out when “AAAAAACAUGAGGAUCACCCAUGUGAGGAUAUUCAAAAAAAAAAAAAAAACACAAGAAGGAGAAGGCACAAAAA [Default title]” was run?
**A.** The value was 29.6 nM.

**Q.** How did the “apparent KD of MS2 coat protein” value turn out when “AACAGGACAGGAUAUACAUGAGGAUCACCCAUGUAGGAACAAAGCAGAGUACCAAACAGUAGAAGGGUCAUGGA [Ruby 28]” was run?
**A.** The value was 34.2 nM.

**Q.** With “AAAUUAGCAGGAUAUACUAGGGUCCACCGAACUCUGAAAAGACAUGAGGAUCACCCAUGUAGAAGGGCUUCGAA [Atileso]” as the sequence, how does the “apparent KD of MS2 coat protein” value read?
**A.** The value was 30 nM.

**Q.** For “AGCUAGUGAGGAUAUGCGAACAUGUCAAAAGACGUGAAGGGACAUGAGGAUCACCCAUGUAGAAGGCGCUAGCA [JL 74% mod 2]”, which “apparent KD of MS2 coat protein” value is on record?
**A.** Its value is 33 nM.

**Q.** Which “apparent KD of MS2 coat protein” value does the source give for “AAAAAGUGAGGAUAUACGCUGUGGAGUAGACACAACCAGUCGUAGAAGGCACAUGAGGAUCACCCAUGUCCAAA [EX4 Malc#19]” here?
**A.** The value was 22 nM.

**Q.** “AGGAUGUCAGGAUAUGUGUAAAGAAUAAAACAAAUAACAACACAGAAGGGACAUGAGGAUCACCCAUGUUAAGA [May 44]” was tested. Which “apparent KD of MS2 coat protein” value did it give?
**A.** Its value is 36.8 nM.

**Q.** Which “apparent KD of MS2 coat protein” value does the source give for “AAAAAACAUGAGGAUCACCCAUGUGAGGAUAUCCAAAACAAAAAAAAACAAAACAAAAGGAGAAGGCACAUAAA [Amethyst 54]” here?
**A.** Its value is 58.8 nM.

**Q.** With “AGAGAGUCAGGAUAUACGAAAGAAAAGGGAAACAACAAGGGACAUGAGGAUCACCCAUGUAGAAGGGACGAGAA [Diamond 99]” as the sequence, how does the “apparent KD of MS2 coat protein” value read?
**A.** The value was 99.8 nM.

**Q.** For “AAAAAACAUGAGGAUCACCCAUGUAAGGAUAUGCAAAACCCAUAUAAAAAGGGAAAAAGCAGAAGGUACAAAAA [Starry Exclusion 1.1 (wbt round 1 mod)]”, which “apparent KD of MS2 coat protein” value is on record?
**A.** The value was 24.9 nM.

**Q.** “AAAAAACAUGAGGAUCACCCAUGUAAGGAUAUCGGAAAAGGAAAAAUAAAAAAGAAGACGAGAAGGUACACCAA [Mat - Exclusion 1 - Eli mod - D78]” was tested. Which “apparent KD of MS2 coat protein” value did it give?
**A.** Its value is 25.8 nM.

**Q.** Which “apparent KD of MS2 coat protein” value does the source give for “AAAAAGUGAGGAUAUGUCAAAAGUCACAAAAGUGACAAAAGACAGAAGGCACAUGAGGAUCACCCAUGUGAAAA [Mod of Eli - Late G + early G segment 3]” here?
**A.** Its value is 26.8 nM.

**Q.** Which “apparent KD of MS2 coat protein” value does the source give for “GAAAAGUCAGGAUAUGCAGACAAAGCAAAAAAGCAAUGUCUGCAGAAGGGACAUGAGGAUCACCCAUGUAAAAG [Mat - Exclusion 4 - Mayanna - D116]” here?
**A.** Its value is 61.1 nM.

**Q.** “AAAUGAUGAGGAUAUACAUGAGGAUCACCCAUGUGUAAAAAUAAAUACACAAAAGAAAGUAGAAGGCAUCAAAA [Ex 3 May 12]” was tested. Which “apparent KD of MS2 coat protein” value did it give?
**A.** The value was 22.7 nM.

**Q.** Which “apparent KD of MS2 coat protein” value does the source give for “AGAGGACAUGAGGAUCACCCAUGUGAGGAUAUGCAAAACUAAGGACAAGAUCGGUAUAGCAGAAGGCACGUAGU [JR_EXc001_Sub808]” here?
**A.** Its value is 46.7 nM.

**Q.** For “GUAGAGUGAGGAUAUGAAUAAAAGAAGAGAAAGAGAAAGCAUCAGAAGGCACAUGAGGAUCACCCAUGUAUGAA [JR_Exc004_Sub1225]”, which “apparent KD of MS2 coat protein” value is on record?
**A.** The value was 29.2 nM.

**Q.** Which “apparent KD of MS2 coat protein” value does the source give for “AAGAAGGUAGGAUAUGCUAAAGAAAUAAAAAUAAAUAAAGAACAUGAGGAUCACCCAUGUAGAAGGGCCAAGAA [Mer[...]re]” here?
**A.** Its value is 47.3 nM.

**Q.** “ACCUUACAUGAGGAUCACCCAUGUUAGGAUAUCUCGCUUUCGCAAUCACAGCGCAAGCAGAGAAGGGACACGGG [Esceari]” was tested. Which “apparent KD of MS2 coat protein” value did it give?
**A.** The value was 28.3 nM.

**Q.** With “GGAAAACAUGAGGAUCACCCAUGUAAGGAUAUGCAAAAAAAAAAGGAUAUAGAAGGAAGCAGAAGGUACAAAGG [salish99-ex1-28]” as the sequence, how does the “apparent KD of MS2 coat protein” value read?
**A.** Its value is 24.5 nM.

**Q.** “AAGAAGACAGGAUAUACAUGAGGAUCACCCAUGUAAAAGAAAGAAAAGGGAAAGAAAAGUAGAAGGGUCAAGAA [Menkheperure Thutmose IV]” was tested. Which “apparent KD of MS2 coat protein” value did it give?
**A.** Its value is 39.6 nM.

**Q.** With “CAGUACUGAGGAUAUACAUGAGGAUCACCCAUGUAUCCAAGCUAGGAAACUAGCACAUGUAGAAGGCAGUACUG [Ex3: 822]” as the sequence, how does the “apparent KD of MS2 coat protein” value read?
**A.** Its value is 294 nM.

**Q.** How did the “apparent KD of MS2 coat protein” value turn out when “AAGAACGCAGGAUAUACAUGAAAGAAAGAAAAGAAAAGAAAACAUGAGGAUCACCCAUGUAGAAGGGCGAAGAA [EteRNA is fun!]” was run?
**A.** The value was 37.9 nM.

**Q.** For “AAGAAAGGAGGAUAUACAUGAGGAUCACCCAUGUAAAAGAAAGAAGGGAAAGAGAAAAGUAGAAGGCCUAAGAA [Wahibre Psamtik I]”, which “apparent KD of MS2 coat protein” value is on record?
**A.** Its value is 32.7 nM.

**Q.** “AAAGGCUUAGGAUAUACAGUGGUCCCAAUGGGCAUCCGAAAACAUGAGGAUCACCCAUGUAGAAGGAAGAAAAU [Raleor]” was tested. Which “apparent KD of MS2 coat protein” value did it give?
**A.** Its value is 68.5 nM.

**Q.** “AAAAGACAUGAGGAUCACCCAUGUGAGGAUAUGCGAAAAAAAAAAAUAAAAAAAAAAAGUAGAAGGCACACCAA [Mat - Exclusion 1 - Eli mod - D56]” was tested. Which “apparent KD of MS2 coat protein” value did it give?
**A.** The value was 177 nM.

**Q.** Which “apparent KD of MS2 coat protein” value does the source give for “GGUUGGCGAGGAUAUACAUGAGGAUCACCCAUGUGAGAGAAUAAAGUGAGAAAGAAAAGUAGAAGGCGCUGACG [salish99-ex3-44]” here?
**A.** The value was 63.7 nM.

**Q.** With “AAAAAACAUGAGGAUCACCCAUGUCAGGAUAUCCUAAAGAAACUCGUAAAAAGAAAUAGGAGAAGGGACAAAAA [PK4]” as the sequence, how does the “apparent KD of MS2 coat protein” value read?
**A.** Its value is 53.7 nM.

**Q.** How did the “apparent KD of MS2 coat protein” value turn out when “AUAAAGUGAGGAUAUGUAAAAAUAACGAAAGUUAUAAAUAAACAGAAGGCACAUGAGGAUCACCCAUGUGAAAU [Meechl MS2 EX4 62% 2]” was run?
**A.** Its value is 24.2 nM.

**Q.** Which “apparent KD of MS2 coat protein” value does the source give for “AGAAAGACAGGAUAUACAUGAGGAUCACCCAUGUAAAAGAAAGAAAAGGGAAAGAAAAGUAGAAGGGUCAAAGA [Ruby 64]” here?
**A.** Its value is 22.1 nM.

**Q.** With “AAGAAACAUGAGGAUCACCCAUGUCAGGAUAUGCAGGACUGACGAAAGUCAGUCCAAAGCAGAAGGGACUAGAA [8-pair stack]” as the sequence, how does the “apparent KD of MS2 coat protein” value read?
**A.** The value was 29.9 nM.

**Q.** Which “apparent KD of MS2 coat protein” value does the source give for “AUAAAGAGAGGAUAUACAUGAGGAUCACCCAUGUAAGAAAUAAAAUAAAUAAAGGGAAGUAGAAGGCUCAAAUA [Denovo 2]” here?
**A.** The value was 28 nM.

**Q.** Which “apparent KD of MS2 coat protein” value does the source give for “GAAAAACAUGAGGAUCACCCAUGUCAGGAUAUCCAAAUAAAAAUAAAAUAAAAUAAAAGGAGAAGGGACAAAAG [Mat - Same state - Mayanna Mod - D101]” here?
**A.** The value was 42.4 nM.

**Q.** How did the “apparent KD of MS2 coat protein” value turn out when “GAAAAGUCAGGAUAUGUGGAAAAAAUAAAAAAAAUAAAAACACAGAAGGGACAUGAGGAUCACCCAUGUUAAAG [Mat - Exclusion 4 - Mayanna - D138]” was run?
**A.** Its value is 41.5 nM.

**Q.** For “AGAAACGAAGGAUAUACAUGAGGAUCACCCAUGUAAAGAAAGAGGAGAGCCACAAGAAGUAGAAGGUCGAAGAA [JR_Exc003_Sub007]”, which “apparent KD of MS2 coat protein” value is on record?
**A.** Its value is 27.4 nM.

**Q.** “AACAGUACAGGAUAUACAUGAGGAUCACCCAUGUAAAAUAAAUAAAAAUAAAAAGGGAGUAGAAGGGUACUGGA [Moding Maslow revisited (73) 19]” was tested. Which “apparent KD of MS2 coat protein” value did it give?
**A.** The value was 37.2 nM.

**Q.** For “AAAAGCACAGGAUAUACAUAAUUAUGACGAAAGUCAUAAAAACAUGAGGAUCACCCAUGUAGAAGGGUGCAAAA [Mod of Meechl's... 64% 1]”, which “apparent KD of MS2 coat protein” value is on record?
**A.** The value was 118 nM.

**Q.** “AAGAAUGGAGGAUAUACAUGAGGAUCACCCAUGUAAAAGAAAGAGGGAAAAGAGAAAAGUAGAAGGCCAAAGAA [Ptolemy VII Neos Philopator]” was tested. Which “apparent KD of MS2 coat protein” value did it give?
**A.** Its value is 36 nM.

**Q.** For “GGAAAGCGAGGAUAUACAUGAGGAUCACCCAUGUUAACAAACAAACAAACAAACAAAAGUAGAAGGCGCAAAAU [Exclusion 3 This and That]”, which “apparent KD of MS2 coat protein” value is on record?
**A.** The value was 42.6 nM.

**Q.** Which “apparent KD of MS2 coat protein” value does the source give for “AGCUAGACAGGAUAUACGAACAUGUCAAAAGACGUAAGGGAACAUGAGGAUCACCCAUGUAGAAGGGUCUAGCA [Diamond 50]” here?
**A.** The value was 28.5 nM.
